# Experimental data taken from US20230220008A1 (Bicycle, published 2023).
# Starred links: 1 amine or outer side, 2 acyl side, 3 side chain; linkers in the order of their positions; H or OH if unused. Positions of bridges follow the written chain, without caps; N, C: chain ends. Non-standard residues stand in square brackets, D forms with d. No end group written: not given here. BCN = bicyclo[6.1.0]non-4-yn-9-ylmethyl carbonate as carbamate, click handle; TATA = O=C(CC[*:1])N1CN(C(=O)CC[*:2])CN(C(=O)CC[*:3])C1; tBuAla = CC(C)(C)C[C@H](N)C(=O)O; Nle = CCCC[C@H](N)C(=O)O; PYA = propargyl-acid
# Target: T1, Recombinant human CD137 (R&D systems), biotinylated (human, UniProt Q07011 24-186, biotinylated with EZ-Link Sulfo-NHS-LC-LC-Biotin)
# T1 construct: Bought protein; Captured on a streptavidin chip; also called human CD137 protein; 4-1BB
# Test: SPR (Biacore), biotinylated human CD137 captured on streptavidin chip
# T1 sequence (Q07011 24-186 limits assumed): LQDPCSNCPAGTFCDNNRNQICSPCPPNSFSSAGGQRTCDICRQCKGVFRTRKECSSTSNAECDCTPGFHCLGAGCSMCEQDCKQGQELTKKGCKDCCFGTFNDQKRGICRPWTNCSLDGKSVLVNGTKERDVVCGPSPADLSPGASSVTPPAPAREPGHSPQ
row,Binder,binding result
1,"Ac-ACIE[dK](PYA)GQYCF[dA]DPY[Nle]CA (linker 2-9-16 via TATA, Bicyclic peptide monomer; also called Monomer 13A) [BCY8925]",no binding (tested: No binding up to 5 µM)
2,"Ac-ACIEK(PYA)GQYCF[dA]DPY[Nle]CA (linker 2-9-16 via TATA, Bicyclic peptide monomer; also called Monomer 14A) [BCY8926]",no binding (tested: No binding up to 5 µM)
3,"XACIEEGQYCFXDPYXCA ((PYA)-A-CiIEEGQYCiiF[D-A]DPY[Nle]Ciii-A; Ci, Cii, Ciii cyclised on TATA, Bicyclic peptide monomer; also called Monomer 10A) [BCY8935]",no binding (tested: No binding up to 5 µM)

# Target: T1, Recombinant human CD137 (R&D systems), …
# Test: SPR (Biacore), biotinylated human CD137 captured on streptavidin chip, peptide as analyte, 25°C; BCY8095 (Monomer 3-BCN), a separate monomer number from BCY7742
# Procedure: (§1) Biacore experiments were performed to determine kₐ (M⁻¹s⁻¹), kd (s⁻¹), KD (nM) values of monomeric peptides binding to human CD137 protein. […] The protein was desalted to remove uncoupled biotin using spin columns into PBS.
# (§2) For analysis of peptide binding, a Biacore T200 or a Biacore 3000 instrument was used with a XanTec CMD500D chip. Streptavidin was immobilized on the chip using standard amine-coupling chemistry at 25° C. with HBS-N(10 mM HEPES, 0.15 M NaCl, pH 7.4) as the running buffer. Briefly, the carboxymethyl dextran surface was activated with a 7 min injection of a 1:1 ratio of 0.4 M 1-ethyl-3-(3-dimethylaminopropyl) carbodiimide hydrochloride (EDC)/0.1 M N-hydroxy succinimide (NHS) at a flow rate of 10 μl/min. For capture of streptavidin, the protein was diluted to 0.2 mg/ml in 10 mM sodium acetate (pH 4.5) and captured by injecting 120 μl of onto the activated chip surface. Residual activated groups were blocked with a 7 min injection of 1 M ethanolamine (pH 8.5) and biotinylated CD137 captured to a level of 270-1500 RU. Buffer was changed to PBS/0.05% Tween 20 and a dilution series of the peptides was prepared in this buffer with a final DMSO concentration of 0.5%. The top peptide concentration was 500 nM with 6 further 2-fold or 3-fold dilutions. The SPR analysis was run at 25° C. at a flow rate of 90 μl/min with 60 seconds association and 900 seconds dissociation. […]
row,Binder,Kd [nM]
1,"Ac-ACIK(BCN)EGQYCFADPY[Nle]CA (linker 2-9-16 via TATA, Bicyclic peptide monomer; also called Monomer 3-BCN) [BCY8095]",0.685

# Target: T2, CD137 on Jurkat reporter cells (Promega) (UniProt Q07011 24-255, limits assumed)
# Test: cell-based or functional assay
# T2 sequence (Q07011 24-255 limits assumed): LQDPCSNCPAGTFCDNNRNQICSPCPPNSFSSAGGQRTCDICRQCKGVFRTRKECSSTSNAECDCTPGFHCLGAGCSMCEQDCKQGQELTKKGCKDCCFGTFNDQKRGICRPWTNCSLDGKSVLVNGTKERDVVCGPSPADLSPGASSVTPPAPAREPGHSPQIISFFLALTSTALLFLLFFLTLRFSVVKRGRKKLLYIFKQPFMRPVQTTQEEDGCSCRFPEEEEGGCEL
Binder,Average Fold EC50 Improvement relative to BCY7845 [fold],Average Relative Fold Induction relative to BCY7845 [fold],Fold Induction over Background [fold],Average EC50 [nM],Average fold induction [fold]
Ac-C[tBuAla]PE[dK](PYA)PYCFADPY[Nle]CA (linker 1-8-15 via TATA; not fully specified) [BCY8947],1.33,0.62,,,
Ac-C[tBuAla]PE[dK](PYA)PYCFADPY[Nle]CA (linker 1-8-15 via TATA; not fully specified) [BCY8948],,,< 2,,
Ac-ACIEK(PYA)GQYCFADPY[Nle]CA (linker 2-9-16 via TATA; not fully specified) [BCY8965],,,< 2,,
Ac-ACIEK(PYA)GQYCFADPY[Nle]CA (linker 2-9-16 via TATA; not fully specified) [BCY8962],,,< 2,,
Ac-ACIEEGK(PYA)YCFADPY[Nle]CA (linker 2-9-16 via TATA; not fully specified; also: tetramer of four peptide units on central hinge A (TET) via spacer S1A n=10) [BCY7845],,,,0.57,6.3
Ac-ACIEK(PYA)GQYCF[dA]DPY[Nle]CA (linker 2-9-16 via TATA; not fully specified) [BCY9113],,,< 2,,
Ac-ACIEK(PYA)GQYCFADPY[Nle]CA (linker 2-9-16 via TATA; not fully specified) [BCY8959],,,< 2,,
Ac-ACIEK(PYA)GQYCFADPY[Nle]CA (linker 2-9-16 via TATA; not fully specified) [BCY8961],,,< 2,,
Ac-ACIEK(PYA)GQYCFADPY[Nle]CA (linker 2-9-16 via TATA; not fully specified) [BCY8957],,,< 2,,

# Target: T2, CD137 on Jurkat reporter cells (Promega)
# Test: cell-based or functional assay
# Remark: another data set of the same source
Binder,Average Fold EC50 Improvement relative to CD137L [fold],Average Relative Fold Induction relative to CD137L [fold],Fold Induction over Background [fold]
XACIEEGQYCFADPYXCA (not fully specified; (PYA)-A-CiIEEGQYCiiF[D-A]DPY[Nle]Ciii-A; Cys on TATA scaffold) [BCY8583],0.031,3.14,
Ac-ACIEK(BCN)GQYCFADPY[Nle]CA (linker 2-9-16 via TATA; not fully specified; also: tetramer of four peptide units on central hinge A (TET) via spacer S1A n=10) [BCY8150],4.14,0.77,
XACIEEGQYCFADPYXCA (not fully specified; (PYA)-A-CiIEEGQYCiiF[D-A]DPY[Nle]Ciii-A; Cys on TATA scaffold) [BCY8582],,,< 2
Ac-ACIEEGK(BCN)YCFADPY[Nle]CA (linker 2-9-16 via TATA; not fully specified; also: trimer of three peptide units on central hinge B (TCA) via spacer S1A n=10) [BCY8151],213,0.49,
XACIEEGQYCFADPYXCA (not fully specified; (BCN)-A-CiIEEGQYCiiFADPY(Nle)Ciii-A; Cys on TATA scaffold) [BCY8149],140,0.93,
XACIEEGQYCFADPYXCA (not fully specified; (PYA)-A-CiIEEGQYCiiF[D-A]DPY[Nle]Ciii-A; Cys on TATA scaffold) [BCY8581],,,< 2
XACIEEGQYCFADPYXCA (not fully specified; (PYA)-A-CiIEEGQYCiiF[D-A]DPY[Nle]Ciii-A; Cys on TATA scaffold) [BCY8584],,,< 2
Ac-ACIEK(PYA)GQYCF[dA]DPY[Nle]CA (linker 2-9-16 via TATA; not fully specified) [BCY8937],,,< 2

# Target: T1, Recombinant human CD137 (R&D systems), …
# Test: SPR (Biacore), biotinylated human CD137 captured on streptavidin chip, peptide as analyte, 25°C
# Procedure: as §1
# For analysis of peptide binding, a Biacore T200 or a Biacore 3000 instrument was used with a XanTec CMD500D chip. Streptavidin was immobilized on the chip using standard amine-coupling chemistry at 25° C. with HBS-N(10 mM HEPES, 0.15 M NaCl, pH 7.4) as the running buffer. Briefly, the carboxymethyl dextran surface was activated with a 7 min injection of a 1:1 ratio of 0.4 M 1-ethyl-3-(3-dimethylaminopropyl) carbodiimide hydrochloride (EDC)/0.1 M N-hydroxy succinimide (NHS) at a flow rate of 10 μl/min. For capture of streptavidin, the protein was diluted to 0.2 mg/ml in 10 mM sodium acetate (pH 4.5) and captured by injecting 120 μl of onto the activated chip surface. Residual activated groups were blocked with a 7 min injection of 1 M ethanolamine (pH 8.5) and biotinylated CD137 captured to a level of 270-1500 RU. Buffer was changed to PBS/0.05% Tween 20 and a dilution series of the peptides was prepared in this buffer with a final DMSO concentration of 0.5%. The top peptide concentration was 500 nM with 6 further 2-fold or 3-fold dilutions. The SPR analysis was run at 25° C. at a flow rate of 90 μl/min with 60 seconds association and 900 seconds dissociation. After each cycle a regeneration step (10 μl of 10 mM glycine pH 2) was employed. Data were corrected for DMSO excluded volume effects as needed. All data were double-referenced for blank injections and reference surface using standard processing procedures and data processing and kinetic fitting were performed using Scrubber software, version 2.0c (BioLogic Software). Data were fitted using simple 1:1 binding model allowing for mass transport effects where appropriate.
row,Binder,Kd [nM]
1,"ACIEEGQYCFADPYXCA (Ac-A-CiIEEGQYCiiFADPYK(BCN)Ciii-A; Ci, Cii, Ciii cyclised on TATA, Bicyclic peptide monomer; also called Monomer 9-BCN) [BCY8097]",99.4
2,"Ac-ACIEEGQYCK(PYA)ADPY[Nle]CA (linker 2-9-16 via TATA, Bicyclic peptide monomer; also called Monomer 7A) [BCY7746]",260
3,"Ac-ACIEEGQYCFADK(PYA)Y[Nle]CA (linker 2-9-16 via TATA, Bicyclic peptide monomer; also called Monomer 8A) [BCY7747]",361
4,"Ac-C[tBuAla]PK(PYA)[dA]PYCFADPY[Nle]CA (linker 1-8-15 via TATA, Bicyclic peptide monomer; also called Monomer 11A) [BCY8927]",12.3
5,"Ac-ACIEK(PYA)GQYCFADPY[Nle]CA (linker 2-9-16 via TATA, Bicyclic peptide monomer; also called Monomer 4A) [BCY7743]",101
6,"Ac-ACIEEGK(BCN)YCFADPY[Nle]CA (linker 2-9-16 via TATA, Bicyclic peptide monomer; also called Monomer 6-BCN) [BCY8143]",112
7,"ACIEEGQYCFADPYXCA (Ac-A-CiIEEGQYCiiFADPYK(PYA)Ciii-A; Ci, Cii, Ciii cyclised on TATA, Bicyclic peptide monomer; also called Monomer 9A) [BCY7748]",264
8,"XACIEEGQYCFADPYXCA ((PYA)-A-CiIEEGQYCiiFADPY(Nle)Ciii-A; Ci, Cii, Ciii cyclised on TATA, Bicyclic peptide monomer; also called Monomer 1A) [BCY7740]",88
9,"ACIEEGQYCFADPYXCX (Ac-A-CiIEEGQYCiiFADPY(Nle)Ciii-Dap(PYA); Ci, Cii, Ciii cyclised on TATA, Bicyclic peptide monomer; also called Monomer 2A) [BCY7741]",122
10,"XACIEEGQYCFADPYXCA ((BCN)-A-CiIEEGQYCiiFADPY(Nle)Ciii-A; Ci, Cii, Ciii cyclised on TATA, Bicyclic peptide monomer; also called Monomer 1-BCN) [BCY8141]",57.8
11,"Ac-ACIEEGQYCK(BCN)ADPY[Nle]CA (linker 2-9-16 via TATA, Bicyclic peptide monomer; also called Monomer 7-BCN) [BCY8144]",66.7
12,"Ac-ACIEK(BCN)GQYCFADPY[Nle]CA (linker 2-9-16 via TATA, Bicyclic peptide monomer; also called Monomer 4-BCN) [BCY8142]",321
13,"Ac-ACIEEGK(PYA)YCFADPY[Nle]CA (linker 2-9-16 via TATA, Bicyclic peptide monomer; also called Monomer 6A) [BCY7745]",63.1
14,"Ac-C[tBuAla]PE[dK](PYA)PYCFADPY[Nle]CA (linker 1-8-15 via TATA, also called Monomer 12A) [BCY8928]",11.4

# Target: T1, Recombinant human CD137 (R&D systems), …
# Test: SPR (Biacore), biotinylated human CD137 captured on streptavidin chip, peptide as analyte, 25°C; BCY7742 (Monomer 3A), a separate monomer number from BCY8095
# Procedure: as §1, §2
row,Binder,Kd [nM]
1,"Ac-ACIK(PYA)EGQYCFADPY[Nle]CA (linker 2-9-16 via TATA, Bicyclic peptide monomer; also called Monomer 3A) [BCY7742]",855
